As a reminder, the stoichiometry N is a count of units in the complex or per binding partner.

Four molecules from article PMC4556617, “Experimental Evidence for a Revision in the Annotation of Putative Pyridoxamine 5'-Phosphate Oxidases P(N/M)P from Fungi” (PLoS ONE, 2015) can be followed below.

Data set [1] addresses T1, Pdx3 (Saccharomyces cerevisiae, UniProt P38075).
T1 construct: full-length, synthetic gene in pET28a (NdeI/BamHI), N-terminal His-tag cut by thrombin; E. coli BL21 DE3 Rosetta; 27189 Da; homodimer
T1 sequence (P38075 1-228): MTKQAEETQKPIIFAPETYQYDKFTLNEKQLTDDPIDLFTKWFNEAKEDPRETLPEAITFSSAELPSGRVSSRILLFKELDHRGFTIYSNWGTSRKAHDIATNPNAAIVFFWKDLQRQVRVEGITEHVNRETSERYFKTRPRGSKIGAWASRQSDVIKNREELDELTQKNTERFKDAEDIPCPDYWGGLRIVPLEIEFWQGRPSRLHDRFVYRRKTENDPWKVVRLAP
The data set is described as follows: FMN fluorescence quenching titration (Ex […] nm, Em […] nm); size-exclusion chromatography co-elution. In kind it is binding. Particulars: 1 uM FMN titrated with protein, 25 C, pH 7.4; protein as purified already carries FMN.

Data set [2] concerns the molecule itself. The data set is described as follows: SEC; analytical size-exclusion chromatography, Superdex 75 3.3/300, 10 uM protein, 10 uL injected, buffer A (20 mM Tris, 150 mM NaCl, 1 mM DTT pH 7.4), tryptophan fluorescence; calibrated with transthyretin tetramers (54 kDa) and chymotrypsin monomers (25 kDa). In general terms: Size exclusion chromatography separates by hydrodynamic size, large species first.

In the case of `Cc1cc2nc3c(=O)[nH]c(=O)nc-3n(C[C@H](O)[C@H](O)[C@H](O)COP(=O)(O)O)c2cc1C` [FMN], in data set [1], the “FMN fluorescence quenching titration (Ex 450 nm, Em 520 nm); size-exclusion chro” value is “Pdx3 produced a clear quenching effect due to FMN binding”.

B1: Ypr172w (natural protein, S. cerevisiae, UniProt Q06608 1-200, looked up)
chain: MAWTSTLPAHLLNLIKNSKYVHVATCSKDCIPSVALMNYIYVPGEKLFGQTDNKNDYIIFVSPQDTQKFYNIKENPKVALLFHDWIIANNLSVGKESISGTPTPTSIPHEEQRQSELLNLLQELNQAELNQMSASIGGETEIVNPESEESKYYKDLILKANPDAKAFIFEKNTAVVKVRIDNARVSNNENRTMFLSKGKS
notes: expected mass after thrombin digestion 22788 Da; A few residues of the vector probably remain after thrombin cleavage (surmised); also called putative P(N/M)P oxidase; source: E. coli BL21 DE3 Rosetta, purified (His Trap HP, thrombin digestion, Superdex 200 gel filtration); not shown: His-tag, N-terminal, cleaved
As for B1, the “stoichiometry N” value in data set [2] amounted to 2.

B2: Pdx3 (enzyme, S. cerevisiae, UniProt P38075 1-228, looked up)
chain: T1 sequence (P38075 1-228)
notes: expected mass after thrombin digestion 27189 Da; A few residues of the vector probably remain after thrombin cleavage (surmised); also called P(N/M)P oxidase; pyridoxamine 5'-phosphate oxidase; source: E. coli BL21 DE3 Rosetta, purified (His Trap HP, thrombin digestion, Superdex 200 gel filtration); not shown: His-tag, N-terminal, cleaved
Regarding B2, the “stoichiometry N” value in data set [2] was found to be 2.

B3: Ylr456w (natural protein, S. cerevisiae, UniProt Q06199 1-204, looked up)
chain: MKLNEQIPKDLLRLIKSSKYVHVATCSSNCIPSVSLMHYIFVSSAETFHKHEYSIEIDCNDYIIFTVFEKSVTFRNVMSNPNVALLFHDWITAKNLTLRKKSVHSKDDFSFVESESTKFNNFLRDLNQSELNQVSATINGIADIVNPNSEESTYYRRLLLTVNPDADIFILGEDTAIIKVNIQKIKVSDMENNTSTYGQTVQPV
notes: Ylr456w, product of the ORF YLR456W of S. cerevisiae (strain BY4741 cDNA), amplified with primers from the ATG to the stop codon, cloned NdeI/BamHI into pET28a; expected mass after thrombin digestion 23574 Da; A few residues of the vector probably remain at the N-terminus after thrombin cleavage (surmised); also called putative P(N/M)P oxidase; source: E. coli BL21 DE3 Rosetta, purified (His Trap …)
With B3, the “stoichiometry N” value in data set [2] came to 2.
